Test [1] addresses T1, human IL-5 with his-tag (rhIL-5-his) (human, UniProt P05113 20-134).
T1 sequence: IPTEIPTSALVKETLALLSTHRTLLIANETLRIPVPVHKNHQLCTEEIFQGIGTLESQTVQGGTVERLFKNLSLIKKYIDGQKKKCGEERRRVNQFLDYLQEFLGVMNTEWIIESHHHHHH
Briefly: FACS blocking: biotin-IL-5 (100 ng/ml) binding to IL-5Rα/β-CHOS cells, antibody diluted. How it is done:
Particular method was as follows: CD-CHO comprising […] and […] zeozin was used to culture CHO-S-IL-5Rα and β. During cell culture, the concentration should not exceed 3×10⁶ cells/ml. IL-5Rα/β-CHOS cells in good condition were centrifuged (at 1000 rpm, 5 min), and washed once with 10% FBS in PBS, and the cells were counted, the cell concentration was adjusted to 4×10⁶ cells/ml, and 25 μl was taken out and added into a round-bottom 96-well plate. The antibody to be tested was diluted with PBS solution comprising 10% FBS. The initial concentration was 200 μg/ml, and diluted at 1:10 for 8 gradient dilutions. 25 μl of 100 ng/ml IL-5 labeled by a biotin labeling kit (Tojin Chemical, LK03) was added, and fully mixed with 50 μl of diluted antibody at each concentration, and added into 96-well plate that has been added with cells, and incubated at 4° C. for 1 hour. After the incubation, the sample was centrifuged at 4° C. (400 g, 5 min), and the supernatant was removed, the plated was washed with 200 μl of pre-cooled PBS by centrifugation, repeated for twice; PE-Avidin secondary antibody diluted at 1:1333 was added and incubated in the dark at 4° C. for 40 min, centrifuged at 4° C.

The target of test [2] is T1, human IL-5 with his-tag (rhIL-5-his). Nature of the test: cell-based or functional assay.
Test [3] shares this target. Briefly: Biacore T200, antibody captured on protein A chip, antigen in flow, 1:1 Langmuir. How it is done: The affinity of the humanized IL-5 antibody to be tested with human IL-5 was measured by Biacore T200 (GE) instrument.
The protein A biosensor chip was used to affinity capture of the molecules to be tested, and then the antigen (prepared in Example 1) flowed through the surface of the chip, and the reaction signal was detected in real time with the Biacore T200 instrument to obtain the binding and dissociation curves. After the dissociation of each experimental cycle was completed, the biosensor chip was washed and regenerated with glycine-hydrochloric acid regeneration solution (pH 1.5). BIA evaluation version 4.1 GE software was used to fit the data against (1:1) Langmuir model, and the affinity value was obtained and shown in Table 14.
In general terms: Surface plasmon resonance follows binding to a sensor surface in real time, without labels.

What is called IC50 is the concentration that gives 50% inhibition. IgG (antibody) came in with an IC50 in test [1] of 8.78 µg/mL.

B1: h1706-006 (antibody, human IgG1, kappa, V domains shown)
VH: EVQLVESGGGLVQPGGSLRLSCAASGFTFSHYYMAWVRQAPGKGLEWVSSINYEGNSAYYGDSVKGRFTISRDNSKNTLYLQMNSLRAEDTAVYYCATETLRESLDYWGQGTMVTVSS
VL: DIQMTQSPSSVSASVGDRVTITCRASQDIGNYLSWYQQKPGKSPKLLIYSASNLEVGVPSRFSGSGSGTDFTLTISSLQPEDFATYYCLQHKQFPRTFGGGTKVEIKR
notes: Constant regions as for h1706-003
The term Kd denotes the free concentration of one partner at which half of the binding sites on the other are occupied at equilibrium, for simple one-to-one binding. A higher Kd goes with weaker binding. With B1, the “IC50 of inhibition of IL-5 induced TF1 cell proliferation” value in test [2] amounted to 0.34 nM. Also, in test [3], binding was characterised by a dissociation constant (Kd) of 0.0173 nM.

B2: h1706-004 (antibody, human IgG1, kappa, V domains shown)
VH: EVQLVESGGGLVQPGGSLRLSCAASGFTFSHYYMAWVRQAPGKGLEWVTSINYEGNSAYYGDSVKGRFTISRDNSKNTLYLQMNSLRAEDTATYYCATETLRESLDYWGQGTMVTVSS
VL: DIQMTQSPSSVSASVGDRVTITCRASQDIGNYLSWYQQKPGKAPKLLIYSASNLEVGVPSRFSGSGSGTDFTLTISSLQPEDFATYYCLQHKQFPRTFGGGTKVEIKR
B2: the “IC50 of inhibition of IL-5 induced TF1 cell proliferation” value in test [2] came out at 0.3 nM.

B3: h1706-007 (antibody, human IgG1, kappa, V domains shown)
VH: EVQLVESGGGLVQPGGSLRLSCAASGFTFSHYYMAWVRQAPGKGLEWVTSINYEGNSAYYGDSVKGRFTISRDNSKNTLYLQMNSLRAEDTATYYCATETLRESLDYWGQGTMVTVSS
VL: DIQMTQSPSSVSASVGDRVTITCRASQDIGNYLSWYQQKPGKSPKLLIYSASNLEVGVPSRFSGSGSGTDFTLTISSLQPEDFATYYCLQHKQFPRTFGGGTKVEIKR
With B3, the “IC50 of inhibition of IL-5 induced TF1 cell proliferation” value in test [2] stood at 0.28 nM.

B4: h1705-007 (antibody, human IgG1, kappa, V domains shown)
VH: EVQLVESGGGLVQPGGSLRLSCAASGFTFSHYYMAWVRQAPGKGLEWVSSISYEGDITYYGDSVKGRFTISRDNSKNTLYLQMNSLRAEDTAVYYCASQTLRESFDYWGQGTLVTVSS
VL: DIQMTQSPSSVSASVGDRVTITCRASQDIANYLSWYQQKPGKSPKLLIYGTSNLEVGVPSRFSGSRSGTDFTLTISSLQPEDFATYYCLQDKEFPRTFGGGTKVEIKR
B4: in test [2], the “IC50 of inhibition of IL-5 induced TF1 cell proliferation” value was 0.25 nM. In test [3], this molecule had a Kd of 0.0221 nM.

B5: h1705-009 (antibody, human IgG1, kappa, V domains shown)
VH: EVQLVESGGGLVQPGGSLRLSCAASGFTFSHYYMAWVRQAPGKGLEWVSSISYEGDITYYGDSVKGRFTISRDNSKNTLYLQMNSLRAEDTAVYYCAKQTLRESFDYWGQGTLVTVSS
VL: DIQMTQSPSSVSASVGDRVTITCRASQDIANYLSWYQQKPGKSPKLVIYGTSNLEVGVPSRFSGSRSGSDYTLTISSLQPEDFATYFCLQDKEFPRTFGGGTKVEIKR
As for B5, in test [3], binding was characterised by a dissociation constant (Kd) of 4.55 nM.

B6: h1705-011 (antibody, human IgG1, kappa, V domains shown)
VH: EVQLVESGGGLVQPGGSLRLSCAASGFTFSHYYMAWVRQAPGKGLEWVTSISYEGDITYYGDSVKGRFTISRDNSKNTLYLQMNSLRAEDTATYYCASQTLRESFDYWGQGTLVTVSS
VL: DIQMTQSPSSVSASVGDRVTITCRASQDIANYLSWYQQKPGKSPKLVIYGTSNLEVGVPSRFSGSRSGSDYTLTISSLQPEDFATYFCLQDKEFPRTFGGGTKVEIKR
In the case of B6, in test [2], the “IC50 of inhibition of IL-5 induced TF1 cell proliferation” value came to 0.28 nM. For the same molecule, the Kd in test [3] was found to be 0.023 nM.

B7: h1705-003 (antibody, human IgG1, kappa, V domains shown)
VH: EVQLVESGGGLVQPGGSLRLSCAASGFTFSHYYMAWVRQAPGKGLEWVSSISYEGDITYYGDSVKGRFTISRDNSKNTLYLQMNSLRAEDTAVYYCAKQTLRESFDYWGQGTLVTVSS
VL: DIQMTQSPSSVSASVGDRVTITCRASQDIANYLSWYQQKPGKAPKLLIYGTSNLEVGVPSRFSGSGSGTDFTLTISSLQPEDFATYYCLQDKEFPRTFGGGTKVEIKR
Molecule B7 registered a Kd in test [3] of 3.35 nM.

B8: h1705-010 (antibody, human IgG1, kappa, V domains shown)
VH: EVQLVESGGGLVQPGGSLRLSCAASGFTFSHYYMAWVRQAPGKGLEWVSSISYEGDITYYGDSVKGRFTISRDNSKNTLYLQMNSLRAEDTAVYYCASQTLRESFDYWGQGTLVTVSS
VL: DIQMTQSPSSVSASVGDRVTITCRASQDIANYLSWYQQKPGKSPKLVIYGTSNLEVGVPSRFSGSRSGSDYTLTISSLQPEDFATYFCLQDKEFPRTFGGGTKVEIKR
As for B8, the “IC50 of inhibition of IL-5 induced TF1 cell proliferation” value in test [2] was 0.3 nM. Moreover, binding in test [3] was put at a Kd of 0.0205 nM.

B9: h1705-006 (antibody, human IgG1, kappa, V domains shown)
VH: EVQLVESGGGLVQPGGSLRLSCAASGFTFSHYYMAWVRQAPGKGLEWVSSISYEGDITYYGDSVKGRFTISRDNSKNTLYLQMNSLRAEDTAVYYCAKQTLRESFDYWGQGTLVTVSS
VL: DIQMTQSPSSVSASVGDRVTITCRASQDIANYLSWYQQKPGKSPKLLIYGTSNLEVGVPSRFSGSRSGTDFTLTISSLQPEDFATYYCLQDKEFPRTFGGGTKVEIKR
B9 registered a Kd in test [3] of 4.11 nM.

B10: h1705-005 (antibody, human IgG1, kappa, V domains shown)
VH: EVQLVESGGGLVQPGGSLRLSCAASGFTFSHYYMAWVRQAPGKGLEWVTSISYEGDITYYGDSVKGRFTISRDNSKNTLYLQMNSLRAEDTATYYCASQTLRESFDYWGQGTLVTVSS
VL: DIQMTQSPSSVSASVGDRVTITCRASQDIANYLSWYQQKPGKAPKLLIYGTSNLEVGVPSRFSGSGSGTDFTLTISSLQPEDFATYYCLQDKEFPRTFGGGTKVEIKR
Take B10: in test [2], the “IC50 of inhibition of IL-5 induced TF1 cell proliferation” value is 0.3 nM. The molecule also came in with a Kd in test [3] of 0.0216 nM.

B11: h1706-003 (antibody, human IgG1, kappa, V domains shown)
VH: EVQLVESGGGLVQPGGSLRLSCAASGFTFSHYYMAWVRQAPGKGLEWVSSINYEGNSAYYGDSVKGRFTISRDNSKNTLYLQMNSLRAEDTAVYYCATETLRESLDYWGQGTMVTVSS
VL: DIQMTQSPSSVSASVGDRVTITCRASQDIGNYLSWYQQKPGKAPKLLIYSASNLEVGVPSRFSGSGSGTDFTLTISSLQPEDFATYYCLQHKQFPRTFGGGTKVEIKR
On to B11, for which the “IC50 of inhibition of IL-5 induced TF1 cell proliferation” value in test [2] is 0.31 nM. The Kd in test [3] is 0.0189 nM.

B12: h1705-004 (antibody, human IgG1, kappa, V domains shown)
VH: EVQLVESGGGLVQPGGSLRLSCAASGFTFSHYYMAWVRQAPGKGLEWVSSISYEGDITYYGDSVKGRFTISRDNSKNTLYLQMNSLRAEDTAVYYCASQTLRESFDYWGQGTLVTVSS
VL: DIQMTQSPSSVSASVGDRVTITCRASQDIANYLSWYQQKPGKAPKLLIYGTSNLEVGVPSRFSGSGSGTDFTLTISSLQPEDFATYYCLQDKEFPRTFGGGTKVEIKR
Take B12: the “IC50 of inhibition of IL-5 induced TF1 cell proliferation” value in test [2] amounted to 0.3 nM. Also, in test [3], the Kd was 0.0214 nM.

B13: h1773-007 (antibody, human IgG1, kappa, V domains shown)
VH: EVQLVESGGGLVQPGGSLKLSCAASGFTISNTYIHWVKQASGKGLEWIGRIDPAVGDTKHGPKFQGRFTISADDSKNTAYLQMNSLKTEDTAVYYCFRYGIYPDHWGQGTLVTVSS
VL: DIQLTQSPSSLSASVGDRVTITCSASSSVNYIYWYQQKPGKSPKPWIYLTATLASGVPSRFSGSGSGTDFTLTISSLQPEDFATYYCQQWNSYPYTFGGGTKVEIKR
Regarding B13, the “IC50 of inhibition of IL-5 induced TF1 cell proliferation” value in test [2] was 0.38 nM. In test [3], the Kd came to 0.207 nM.

B14: h1779-014 (antibody, human IgG1, kappa, V domains shown)
VH: EVQLVQSGAEVKKPGASVKVSCKASGYTFTDYIIHWVKQAPGQGLEWIGYFNPNSGGSNYNENFKRKATMTADKSISTAYLEFSRLRSEDTAVYYCARRIAWDHWYFDFWGQGTMVTVSS
VL: DIQMTQSPSSLSASVGDRVTITCLASEGISNDVAWYQQKPGKSPKLLVYAASRLQDGVPSRFSGSGSGTDYTFTISSLQPEDIATYYCQQGYKTPLTFGQGTKLEIKR
notes: See recheck
B14: the “IC50 of inhibition of IL-5 induced TF1 cell proliferation” value in test [2] was 0.2 nM. This molecule also returned a Kd in test [3] of 0.412 nM. In test [1], the IC50 came to 0.0496 µg/mL.

Values taken from patent publication US20220144937A1 (JIANGSU HENGRUI MEDICINE, published 2022).
